Experimental data published in patent publication US20260209363A1 (Chugai, published 2026).

T1: Mouse MOG (R&D system) (mouse, UniProt Q61885 29-156, limits assumed)
T1 construct: also called mouse soluble MOG; soluble MOG
T1 sequence (looked up): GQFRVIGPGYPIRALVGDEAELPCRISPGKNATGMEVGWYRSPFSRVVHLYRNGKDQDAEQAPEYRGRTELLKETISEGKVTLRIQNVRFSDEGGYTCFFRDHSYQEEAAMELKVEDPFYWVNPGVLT

T2: His-tagged mouse MOG (8536-MO, R&D Systems) (mouse, UniProt Q61885 29-156, limits assumed)
T2 construct: Bought; also called mouse soluble MOG; not shown: His tag
T2 sequence (looked up): T1 sequence (looked up)

B1: ABD094(H/L)-MOG//IC17 (bispecific antibody, human IgG1, kappa)
heavy 1: LAEAKEAANAELDSYGVSDFYKRLIDKAKTVEGVEALKDAILAALPRVTLRESGPTLVKPTQTLTLTCTFSGFSLSTSGVGVGWIRQPPGKALEWLALIFWDDDSHYSPSLKSRLTITKDTSKNQVVLTMTNMDPVDTATYYCARYYFGSGSYFPSYWYFDLWGRGTLVTVSSASTKGPSVFPLAPSSKSTSGGTAALGCLVEDYFPEPVTVSWNSGALTSGVHTFPAVLQSSGLYSLSSVVTVPSSSLGTQTYICNVNHKPSNTKVDERVEPKSCDKTHTCPPCPAPELRRGPSVFLFPPKPKDTLMISRTPEVTCVVVDVSHEDPEVKFNWYVDGVEVHNAKTKPREEQYNSTYRVVSVLTVLHQDWLNGKEYKCKVSNKALPAPIEKTISKAKGQPREPQVCTLPPSREEMTKNQVSLSCAVKGFYPSDIAVEWESNGQPENNYKTTPPVLDSDGSFFLVSKLTVDKSRWQQGNVFSCSVMHEALHNHYTQKSLSLSP
light 1: not shown
heavy 2: not shown
light 2: QVQLQQSGPQLVRPGASVKISCKASGYSFTSYWMHWVNQRPGQGLEWIGMIDPSYSETRLNQKFKDKATLTVDKSSSTAYMQLSSPTSEDSAVYYCALYGNYFDYWGQGTTLTVSSASVAAPSVFIFPPSDEQLKSGTASVVCLLNNFYPREAKVQWKVDNALQSGNSQESVTEQDSKDSTYSLSSTLTLSKADYEKHKVYACEVTHQGLSSPVTKSFNRGEC
notes: also called ABD094(H/L)-MOG307//IC17; anti-MOG albumin switch molecule
B2: ABD094(H/L).N02-MOG//IC17 (bispecific antibody, human IgG1, kappa)
heavy 1: LAEAKEAANAELDSYGVSDFYKRLIDKAKTVEGVEALKDAILAALPGGGGSRVTLRESGPTLVKPTQTLTLTCTFSGFSLSTSGVGVGWIRQPPGKALEWLALIFWDDDSHYSPSLKSRLTITKDTSKNQVVLTMTNMDPVDTATYYCARYYFGSGSYFPSYWYFDLWGRGTLVTVSSASTKGPSVFPLAPSSKSTSGGTAALGCLVEDYFPEPVTVSWNSGALTSGVHTFPAVLQSSGLYSLSSVVTVPSSSLGTQTYICNVNHKPSNTKVDERVEPKSCDKTHTCPPCPAPELRRGPSVFLFPPKPKDTLMISRTPEVTCVVVDVSHEDPEVKFNWYVDGVEVHNAKTKPREEQYNSTYRVVSVLTVLHQDWLNGKEYKCKVSNKALPAPIEKTISKAKGQPREPQVCTLPPSREEMTKNQVSLSCAVKGFYPSDIAVEWESNGQPENNYKTTPPVLDSDGSFFLVSKLTVDKSRWQQGNVFSCSVMHEALHNHYTQKSLSLSP
light 1: not shown
heavy 2: not shown
light 2: B1 light 2
notes: ABD094 linked via N02 linker at VH and VL N-termini of the MOG arm; also called ABD094.N02(H/L)-MOG//IC17
B3: ABD094(H/L).N10-MOG//IC17 (bispecific antibody, human IgG1, kappa)
heavy 1: LAEAKEAANAELDSYGVSDFYKRLIDKAKTVEGVEALKDAILAALPGRVTLRESGPTLVKPTQTLTLTCTFSGFSLSTSGVGVGWIRQPPGKALEWLALIFWDDDSHYSPSLKSRLTITKDTSKNQVVLTMTNMDPVDTATYYCARYYFGSGSYFPSYWYFDLWGRGTLVTVSSASTKGPSVFPLAPSSKSTSGGTAALGCLVEDYFPEPVTVSWNSGALTSGVHTFPAVLQSSGLYSLSSVVTVPSSSLGTQTYICNVNHKPSNTKVDERVEPKSCDKTHTCPPCPAPELRRGPSVFLFPPKPKDTLMISRTPEVTCVVVDVSHEDPEVKFNWYVDGVEVHNAKTKPREEQYNSTYRVVSVLTVLHQDWLNGKEYKCKVSNKALPAPIEKTISKAKGQPREPQVCTLPPSREEMTKNQVSLSCAVKGFYPSDIAVEWESNGQPENNYKTTPPVLDSDGSFFLVSKLTVDKSRWQQGNVFSCSVMHEALHNHYTQKSLSLSP
light 1: not shown
heavy 2: not shown
light 2: B1 light 2
notes: ABD094 linked via N10 linker (G) at VH and VL N-termini of the MOG arm; also called ABD094.N10(H/L)-MOG//IC17; ABD094(H/L).N10-MOG307//IC17

These binders were tested against T1, Mouse MOG (R&D system) (assay: SPR (Biacore T200), antibody captured by anti-human Fc antibody, mouse MOG as analyte, 25 degrees C, no albumin).
Protocol: Binding activities of the antibodies produced in Example 10 against mouse MOG were assessed using Biacore T200 (Cytiva).
As the running buffer, 50 mM Na Phosphate (pH 7.4), 150 mM NaCl, 0.05% Tween 20, and 0.005% NaN₃ was used, and the assessment was performed at 25 degrees C. First, anti-human Fc antibody (Cytiva) was used as a ligand-capturing molecule. Anti-human Fc antibody (Cytiva) was solid-phased on a Series S Sensor Chip CM4 (Cytiva) using an Amine Coupling Kit (Cytiva). Antibody solutions prepared using the running buffer was allowed to interact with this CM4 sensor chip to capture approximately 480 RU of the antibody. Mouse MOG (R&D system) was diluted to 0, 10, 40, 160, and 640 nM with the running buffer, and then bound to the captured antibody. The chip was regenerated using 3 M MgCl₂, and measurements were performed by repeatedly capturing antibodies. Dissociation constant (KD) of the respective antibodies for mouse MOG was calculated using Biacore T200 Evaluation Software 2.0. Specifically, the association rate constant ka (L/mol/s) and the dissociation rate constant kd (1/s) were calculated by global fitting of the sensorgrams obtained by measurement with the 1:1 Langmuir binding model, and the dissociation constant KD (mol/L) was calculated from these values.

Binder | Kd [nM] | koff [s⁻¹] | kon [M⁻¹ s⁻¹]
B1 | 1.91 | 1.39e-05 | 7260
B2 | 0.0607 | 3.46e-07 | 5700
B3 | 5.53 | 9.46e-06 | 1710

Each binder was assayed against T2, His-tagged mouse MOG (8536-MO, R&D …) (assay: Gyrolab xP immunoassay of antibody-antigen complex in C57BL/6J mouse plasma (albumin present), 2 nM antibody, 9 nM His-tagged mouse MOG).
Protocol: First, to bind the albumin-binding domain to albumin in plasma, each of the anti-mouse MOG antibodies mentioned above were diluted to 8 nM using C57BL/6J mouse plasma, and then incubated at room temperature for 40 minutes. Next, for binding of the anti-mouse MOG antibody to the target antigen, one equivalent of His-tagged mouse MOG (8536-MO, R&D Systems) diluted to 38 nM in mouse plasma was added to the antibody solutions, and then the solutions were incubated at room temperature for 1 hour 25 minutes.
To detect the antibody-antigen complexes, first, the anti-delta GK antibody (AF647-anti-delta GK) was labeled using an Alexa flour 647 labeling kit (A20186, Thermo Fisher Scientific) according to the attached protocols. […] (the final concentrations were 2 nM for the antibody, 9 nM for His-tagged mouse MOG, and 67 nM for AF647-anti-delta GK).
Measurement of antigen-antibody complexes were performed using Gyrolab xP. For the measurements using Gyrolab xP, Gyrolab Bioaffy 200 (P0004180, Gyros Protein Technologies) was used as the measurement disc. Biotinylated anti-His-tagged antibody (BAM050, R&D Systems) diluted to 10 micro g/mL with PBS 0.05% Tween 20 was added to the measurement disc, and then solid-phased on the reaction layer in the disc. A mixed solution of the labeled anti-delta GK antibody, anti-mouse MOG antibody (albumin switch molecule), and mouse MOG, incubated as described above, was added to the disc, and the anti-mouse MOG antibody-mouse MOG-AF647-anti-delta GK complex was captured by the solid-phased antibody. The amount of the captured complex was detected by the fluorescence signal of AF647 (Detect PMT 25%). The fluorescence signal of AF647 was analyzed by Gyro Evaluator (version 3.6.2.30, Gyros Protein Technologies).

Binder | decrease in the signal derived from the complex, compared to MOG//IC17 [%]
B1 | 90
B2 | 79
B3 | 83
